# Measurements as given in US20210238260.
# Residue numbers refer to the chain shown, from its start. Numbers in names are those of the source.
# T1: Factor VIIIa (FVIIIa), P00451
# T1 chain: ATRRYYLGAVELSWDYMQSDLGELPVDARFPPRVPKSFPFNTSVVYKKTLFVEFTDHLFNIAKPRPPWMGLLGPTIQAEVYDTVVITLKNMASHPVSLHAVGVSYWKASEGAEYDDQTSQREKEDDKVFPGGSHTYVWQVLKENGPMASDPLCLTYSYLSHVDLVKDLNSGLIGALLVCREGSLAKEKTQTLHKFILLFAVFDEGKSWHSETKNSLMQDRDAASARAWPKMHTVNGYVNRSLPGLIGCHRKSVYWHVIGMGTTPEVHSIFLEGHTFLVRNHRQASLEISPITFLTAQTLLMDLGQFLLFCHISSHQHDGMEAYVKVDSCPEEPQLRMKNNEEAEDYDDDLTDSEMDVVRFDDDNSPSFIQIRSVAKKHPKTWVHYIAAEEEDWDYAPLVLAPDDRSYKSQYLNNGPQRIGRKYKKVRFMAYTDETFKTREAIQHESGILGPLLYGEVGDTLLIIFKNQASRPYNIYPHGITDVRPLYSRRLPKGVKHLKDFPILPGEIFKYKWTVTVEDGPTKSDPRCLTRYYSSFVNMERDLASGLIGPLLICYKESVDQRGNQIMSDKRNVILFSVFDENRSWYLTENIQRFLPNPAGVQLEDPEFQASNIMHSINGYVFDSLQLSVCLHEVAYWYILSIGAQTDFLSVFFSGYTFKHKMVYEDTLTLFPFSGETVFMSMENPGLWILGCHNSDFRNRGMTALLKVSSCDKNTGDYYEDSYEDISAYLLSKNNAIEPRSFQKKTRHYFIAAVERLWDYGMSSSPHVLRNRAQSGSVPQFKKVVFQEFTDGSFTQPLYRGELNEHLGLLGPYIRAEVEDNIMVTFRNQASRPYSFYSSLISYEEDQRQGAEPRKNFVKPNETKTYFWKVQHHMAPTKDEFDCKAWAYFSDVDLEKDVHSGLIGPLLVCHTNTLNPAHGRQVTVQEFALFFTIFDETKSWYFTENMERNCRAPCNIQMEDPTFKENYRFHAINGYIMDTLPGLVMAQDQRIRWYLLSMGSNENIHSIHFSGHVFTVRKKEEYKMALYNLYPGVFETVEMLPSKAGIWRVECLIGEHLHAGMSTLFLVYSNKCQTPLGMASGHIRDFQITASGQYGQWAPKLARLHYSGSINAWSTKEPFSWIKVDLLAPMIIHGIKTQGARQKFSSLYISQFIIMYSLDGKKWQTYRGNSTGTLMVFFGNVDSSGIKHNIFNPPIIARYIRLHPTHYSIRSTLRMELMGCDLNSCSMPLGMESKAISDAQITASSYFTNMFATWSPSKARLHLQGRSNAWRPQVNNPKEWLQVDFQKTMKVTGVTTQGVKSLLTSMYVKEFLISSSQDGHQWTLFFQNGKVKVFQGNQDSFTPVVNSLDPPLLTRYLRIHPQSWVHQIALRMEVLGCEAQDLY
# B1: FIX of SEQ ID NO: 394, with the replacements R318Y/R338E/T343R (activated, FIXa) (protein)
# chain 1: YNSGKLEEFVQGNLERECMEEKCSFEEAREVFENTERTTEFWKQYVDGDQCESNPCLNGGSCKDDINSYECWCPFGFEGKNCELDVTCNIKNGRCEQFCKNSADNKVVCSCTEGYRLAENQKSCEPAVPFPCGRVSVSQTSKLTR
# chain 2: VVGGEDAKPGQFPWQVVLNGKVDAFCGGSIVNEKWIVTAAHCVETGVKITVVAGEHNIEETEHTEQKRNVIRIIPHHNYNAAINKYNHDIALLELDEPLVLNSYVTPICIADKEYTNIFLKFGSGYVSGWGRVFHKGYSALVLQYLRVPLVDRATCLESTKFRIYNNMFCAGFHEGGRDSCQGDSGGPHVTEVEGTSFLTGIISWGEECAMKGKYGIYTKVSRYVNWIKEKTKLT
# B2: FIXa-Y155F/K228N/K247N/N249S (protein)
# chain 1: B1 chain 1
# chain 2: B1 chain 2 with K48N, K67N, N69S, Y138R, E158R, R163T
# B3: FIXa-K247N/N249S/R318Y/R338E/R403E/E410N (protein)
# chain 1: B1 chain 1
# chain 2: B1 chain 2 with K67N, N69S, R163T, R223E, E230N
# B4: FIXa-D104N/K106S/K228N/K247N/N249S (protein)
# chain 1: B1 chain 1 with D104N, K106S
# chain 2: B1 chain 2 with K48N, K67N, N69S, Y138R, E158R, R163T
# B5: FIXa-K247N/N249S/R318Y/R338E/E410N (protein)
# chain 1: B1 chain 1
# chain 2: B1 chain 2 with K67N, N69S, R163T, E230N
# B6: FIXa-R318Y/R338E/E410S (protein)
# chain 1: B1 chain 1
# chain 2: B1 chain 2 with R163T, E230S
# B7: FIXa-R318Y/R338E/E410N/T412V (protein)
# chain 1: B1 chain 1
# chain 2: B1 chain 2 with R163T, E230N, T232V
# B8: FIXa-D104N/K106S/Y155F/K228N/K247N/N249S (protein)
# chain 1: B1 chain 1 with D104N, K106S
# chain 2: B1 chain 2 with K48N, K67N, N69S, Y138R, E158R, R163T
# B9: FIXa-K228N/K247N/N249S (protein)
# chain 1: B1 chain 1
# chain 2: B1 chain 2 with K48N, K67N, N69S, Y138R, E158R, R163T
# B10: FIXa-Y155F/R318Y/R338E/N346D/R403E/E410N (protein)
# chain 1: B1 chain 1
# chain 2: B1 chain 2 with R163T, N166D, R223E, E230N
# B11: FIXa-Y155F/K247N/N249S/R318Y/R338E/E410N (protein)
# chain 1: B1 chain 1
# chain 2: B1 chain 2 with K67N, N69S, R163T, E230N
# B12: FIXa-D104N/K106S/N260S/R318Y/R338E/R403E/E410N (protein)
# chain 1: B1 chain 1 with D104N, K106S
# chain 2: B1 chain 2 with N80S, R163T, R223E, E230N
# B13: FIXa-I251S/R318Y/R338E/E410N (protein)
# chain 1: B1 chain 1
# chain 2: B1 chain 2 with I71S, R163T, E230N
# B14: FIXa-Y259F/K265T/Y345T (protein)
# chain 1: B1 chain 1
# chain 2: B1 chain 2 with Y79F, K85T, Y138R, E158R, R163T, Y165T
# B15: FIXa-D104N/K106S/I251S/R318Y/R338E/E410N (protein)
# chain 1: B1 chain 1 with D104N, K106S
# chain 2: B1 chain 2 with I71S, R163T, E230N
# B16: FIXa-A103N/N105S/K247N/N249S/R318Y/R338E/R403E/E410N (protein)
# chain 1: B1 chain 1 with A103N, N105S
# chain 2: B1 chain 2 with K67N, N69S, R163T, R223E, E230N
# B17: FIXa-N260S/R318Y/R338E/R403E/E410N (protein)
# chain 1: B1 chain 1
# chain 2: B1 chain 2 with N80S, R163T, R223E, E230N
# What was measured:
# [1] = biological target: T1, Factor VIIIa (FVIIIa), P00451
# [2] = biological target: Factor X (FX), P00742
# Chain of Factor X (FX), P00742 (P00742 whole entry, looked up): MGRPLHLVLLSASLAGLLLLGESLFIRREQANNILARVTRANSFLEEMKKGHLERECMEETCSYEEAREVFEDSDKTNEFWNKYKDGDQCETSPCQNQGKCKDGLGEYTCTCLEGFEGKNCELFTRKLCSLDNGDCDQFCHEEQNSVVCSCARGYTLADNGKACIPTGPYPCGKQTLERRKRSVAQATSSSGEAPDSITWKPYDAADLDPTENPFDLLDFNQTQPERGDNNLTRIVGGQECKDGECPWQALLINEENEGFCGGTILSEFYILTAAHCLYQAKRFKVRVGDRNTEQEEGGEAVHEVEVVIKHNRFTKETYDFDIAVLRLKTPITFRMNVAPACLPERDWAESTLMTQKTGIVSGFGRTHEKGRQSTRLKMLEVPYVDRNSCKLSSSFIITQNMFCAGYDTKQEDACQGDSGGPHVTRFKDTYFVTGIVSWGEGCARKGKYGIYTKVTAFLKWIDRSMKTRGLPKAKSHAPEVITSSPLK
# [3] = biological target: Factor X, P00742
# Chain of Factor X, P00742 (P00742 whole entry, looked up): as above
# [4] = biological target: plasma purified human AT-III (antithrombin III); assay: AT-III/UFH inhibition K0.5, ratio to Catalyst Biosciences WT FIXa
# [5] = biological target: T2, plasma purified human antithrombin III (AT-III), as complex with unfractionated heparin; assay: ratio of K0.5 to Catalyst Biosciences WT FIXa, AT-III/UFH inhibition
# [6] = biological target: T2, plasma purified human antithrombin III …; assay: ratio of K0.5 (lower limit) to Catalyst Biosciences WT FIXa, AT-III/UFH inhibition
Protein,"kcat of FX activation by FIXa (Xase complex with FVIIIa, PC/PS vesicles, Ca2+) [2] [s⁻¹]",% of WT kcat/KM [3] [%],kcat/KM [3] [M⁻¹ s⁻¹],K0.5-mut/K0.5-wt [4],K0.5-mut/K0.5-wt [5],% of WT kcat/KM [2] [%],kcat [2] [s⁻¹],kcat/KM [2] [M⁻¹ s⁻¹],KM [3] [µM],other results
B1,,,,,,,,,,"FIX activity, mean, Test 1, FVIIIa 0 ng/mL (no cofactor, baseline) [1]: 1.24; FIX activity, mean, Test 1, FVIIIa 5 ng/mL [1]: 278; FIX activity, mean, Test 2, FVIIIa 0 ng/mL (no cofactor, baseline) [1]: 1.25; FIX activity, mean, Test 2, FVIIIa 10 ng/mL [1]: 479; FIX activity, mean, Test 3, FVIIIa 0 ng/mL (no cofactor, baseline) [1]: 1.28; FIX activity, mean, Test 3, FVIIIa 15 ng/mL [1]: 622; Fold-increase after FVIIIa addition, Test 1 (5 ng/mL) [1]: 225 fold; Fold-increase after FVIIIa addition, Test 2 (10 ng/mL) [1]: 384 fold; Fold-increase after FVIIIa addition, Test 3 (15 ng/mL) [1]: 486 fold; Ratio (CB2679d vs BeneFIX FIX) of FIX activity, Test 1, FVIIIa 0 ng/mL (no cofactor) [1]: 1.3; Ratio (CB2679d vs BeneFIX FIX) of FIX activity, Test 1, FVIIIa 5 ng/mL [1]: 2; Ratio (CB2679d vs BeneFIX FIX) of FIX activity, Test 2, FVIIIa 0 ng/mL (no cofactor) [1]: 1.4; Ratio (CB2679d vs BeneFIX FIX) of FIX activity, Test 2, FVIIIa 10 ng/mL [1]: 2; Ratio (CB2679d vs BeneFIX FIX) of FIX activity, Test 3, FVIIIa 0 ng/mL (no cofactor) [1]: 1.3; Ratio (CB2679d vs BeneFIX FIX) of FIX activity, Test 3, FVIIIa 15 ng/mL [1]: 2; Cofactor-Dependent Indirect kcat/KM [2]: 1.2e+08 M⁻¹ s⁻¹; Fold Change, In Vitro Assays: Pro-coagulant Activity [2]: 2.8 fold; Fold Increase over BeneFIX FIX (Cofactor-Dependent Indirect kcat/KM) [2]: 2.8 fold"
B2,4.3,118,5.3e+07,1.4,1.4,,,,,KM [2]: 0.0792 µM; kcat [3]: 4.3 s⁻¹
B3,,341,1.5e+08,418,418,331,5.8,1.5e+08,0.0392,
B4,1.7,,,2.1,2.1,,1.7,,,
B5,,516,2.3e+08,78.3,78.3,501,3.8,2.3e+08,0.0166,
B6,,730,3.3e+08,279,279,,,,0.0164,
B7,5.2,536,2.4e+08,252,,,,,,KM [2]: 0.0297 µM; kcat [3]: 6.3 s⁻¹; K0.5-mut/K0.5-wt [6]: 517
B8,4.7,142,6.3e+07,1.6,1.6,137,4.7,6.3e+07,0.0753,
B9,,86,3.8e+07,4.4,4.4,,,,0.0945,
B10,6.4,139,6.2e+07,> 517,,,,,,KM [2]: 0.1 µM; kcat [3]: 6.4 s⁻¹; K0.5-mut/K0.5-wt [6]: 517
B11,,674,3e+08,200,200,717,4.3,3.3e+08,0.0153,
B12,5.4,196,8.8e+07,> 517,,,,,,KM [2]: 0.0611 µM; kcat [3]: 5.4 s⁻¹; K0.5-mut/K0.5-wt [6]: 517
B13,,851,3.8e+08,303,303,849,6.2,3.9e+08,0.0162,
B14,,,,0.3,0.3,,,,,
B15,,300,1.3e+08,464,464,,,,0.0243,
B16,,232,1e+08,129,129,324,4.1,1.5e+08,0.0397,
B17,3.8,117,5.3e+07,> 517,,,,,,KM [2]: 0.0724 µM; kcat [3]: 3.8 s⁻¹; K0.5-mut/K0.5-wt [6]: 517
